From article PMC8330776 (Emerging Microbes & Infections, 2021)

Biological target: SARS-CoV-2 S trimer (SARS-CoV-2, UniProt P0DTC2)
Assay: SPR
Details: both partners purified

B1: wheat germ agglutinin (natural protein)
chain: QRCGEQGSNMECPNNLCCSQYGYCGMGGDYCGKGCQNGACWTSKRCGSQAGGATCTNNQCCSQYGYCGFGAEYCGAGCQGGPCRADIKCGSQAGGKLCPNNLCCSQWGFCGLGSEFCGGGCQSGACSTDKPCGKDAGGRVCTNNYCCSKWGSCGIGPGYCGAGCQSGGCDG
In the case of B1, the Kd is reported as 1.5 nM, the koff is reported as 0.00482 s⁻¹ and the kon is reported as 3.21e+06 M⁻¹ s⁻¹.
